# Data published in patent US20240059799A1 (Pfizer, published 2024).
# T1: recombinant human TL1A (human, UniProt O95150 71-251)
# T1 chain: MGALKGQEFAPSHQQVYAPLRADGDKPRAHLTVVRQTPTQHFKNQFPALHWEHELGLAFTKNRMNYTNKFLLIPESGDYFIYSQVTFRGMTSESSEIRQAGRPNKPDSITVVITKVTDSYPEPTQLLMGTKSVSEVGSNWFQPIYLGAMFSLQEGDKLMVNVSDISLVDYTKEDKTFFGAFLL
# T2: full-length human TL1A on CHO-K1 cells (human, UniProt O95150 1-251)
# T2 construct: whole, on cells; also called cells over-expressing human TL1A
# T2 sequence (looked up): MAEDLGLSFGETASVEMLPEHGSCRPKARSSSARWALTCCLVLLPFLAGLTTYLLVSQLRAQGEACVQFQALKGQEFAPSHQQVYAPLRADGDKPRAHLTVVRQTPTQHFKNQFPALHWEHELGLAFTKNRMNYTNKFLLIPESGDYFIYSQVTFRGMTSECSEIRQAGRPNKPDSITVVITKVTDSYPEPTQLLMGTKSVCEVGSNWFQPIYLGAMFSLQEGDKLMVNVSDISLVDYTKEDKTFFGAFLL
# T3: recombinant human TL1A (human, UniProt O95150 71-251)
# T3 construct: homotrimer; biotinylated for SPR capture; the ELISA paragraphs say only 'recombinant TL1A'; also called TNFSF15
# T3 chain: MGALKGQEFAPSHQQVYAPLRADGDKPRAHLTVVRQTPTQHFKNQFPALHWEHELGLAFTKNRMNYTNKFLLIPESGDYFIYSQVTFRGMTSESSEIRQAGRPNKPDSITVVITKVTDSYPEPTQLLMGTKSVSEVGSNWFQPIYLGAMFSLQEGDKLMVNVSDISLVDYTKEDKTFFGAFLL
# What was measured:
# recombinant human TL1A [1] = target: T1, recombinant human TL1A; assay: cell-based or functional assay
# recombinant human TL1A [2] = target: T1, recombinant human TL1A; assay: competition ELISA, coated TL1A, competitor bio-TL1A-0002
# [3] = target: T2, full-length human TL1A on CHO-K1 cells; assay: flow cytometry, CHO-K1 cells expressing human TL1A, 133 nM; cells, antibody at 133 nM
# recombinant human TL1A [4] = target: T3, recombinant human TL1A; assay: competition ELISA vs bio-TL1A-0002
# recombinant human TL1A [5] = target: T3, recombinant human TL1A; assay: competition ELISA vs bio-TL1A-0002
# Procedure: For this competition ELISA assay procedure, 96-well high binding plates (Corning, product number 3590) were coated with 1 μg/mL recombinant TL1A in 100 μL/well in Phospate Buffered Saline (PBS) overnight at 4° C. Plates were then blocked in PBS+0.02% casein solution and washed with PBS+0.05% Tween-20 following standard ELISA protocol. […] Plates were washed with PBS+0.05% Tween-20 following standard ELISA protocol, and Streptavidin-HRP (Southern Biotech, product number 7100-05) diluted to 1:10,000 in assay buffer was added to plates and incubated for 25-30 minutes at room temperature. Next, the plates were washed with PBS+0.05% Tween-20 following standard ELISA protocol, and then TMB substrate (BioFX Laboratories, catalog number TMBW-0100-01) was added to plates. Reactions were stopped after approximately 5 minutes by adding 0.18 M ortho-phosphoric acid to each well and absorbance was read at 450 nm.
# recombinant human TL1A [6] = target: T3, recombinant human TL1A; assay: ELISA, biotinylated antibody on coated recombinant TL1A
TF-1 NF-κB reporter cell bioassay IC50 (recombinant human TL1A [1]),"TF-1 NF-κB reporter cell bioassay, Bioactivity relative to TL1A-0002 (recombinant human TL1A [1])",Whole blood IFNγ assay IC50 (recombinant human TL1A [1]),"Whole blood IFNγ assay, Bioactivity relative to TL1A-0002 (recombinant human TL1A [1])",Bioactivity relative to TL1A-0002 (recombinant human TL1A [2]),IC50 (recombinant human TL1A [2]),binding result [3],Bioactivity relative to TL1A-0002 (recombinant human TL1A [4]),IC50 (recombinant human TL1A [4]),Bioactivity relative to TL1A-0002 (recombinant human TL1A [5]),IC50 (recombinant human TL1A [5]),EC50 (recombinant human TL1A [6]),Binder
34.7 nM,1 fold,0.83 nM,1 fold,1 fold,5 nM,binds,,,,,,"TL1A-0002 (antibody, human IgG1, kappa, V domains shown, human IgG1 effector-function-minimized/kappa; also called parental TL1A-0002) VH: QVQLVQSGAEVKKPGASVKVSCKASGYDFTYYGISWVRQAPGQGLEWMGWISTYNGNTHYARMLQGRVTMTTDTSTRTAYMELRSLRSDDTAVYYCARENYYGSGAYRGGMDVWGQGTTVTVSS VL: EIVLTQSPATLSLSPGERATLSCRASQSVSSYLAWYQQKPGQAPRLLIYDASNRATGIPARFSGSGSGTDFTLTISSLEPEDFAVYYCQQRSNWPWTFGQGTKVEIKR"
,,,,,,,1 fold,4.5 nM,1 fold,4.5 nM,5 ng/mL,"TL1A-0002 (antibody, human IgG1, kappa, V domains shown, human IgG1/kappa, effector function minimized; also called bioTL1A-0002 (biotinylated)) VH: QVQLVQSGAEVKKPGASVKVSCKASGYDFTYYGISWVRQAPGQGLEWMGWISTYNGNTHYARMLQGRVTMTTDTSTRTAYMELRSLRSDDTAVYYCARENYYGSGAYRGGMDVWGQGTTVTVSS VL: EIVLTQSPATLSLSPGERATLSCRASQSVSSYLAWYQQKPGQAPRLLIYDASNRATGIPARFSGSGSGTDFTLTISSLEPEDFAVYYCQQRSNWPWTFGQGTKVEIKR"
